One block for each molecule: values may come before it.
What was measured:
[1] = molecular target: PSI-HydA complex of the ΨH1 strain (hydA1-1 hydA2-1 [psaC-hydA2]) (Chlamydomonas reinhardtii) (UniProt P12154); experiment: cell-based or functional assay
[2] = molecular target: PSI-HydA complex purified from ΨH1^H6 (Chlamydomonas reinhardtii) (UniProt P12154); experiment: cell-based or functional assay
[3] = molecular target: PSI purified from WT^H6 (Chlamydomonas reinhardtii) (UniProt P12154); experiment: cell-based or functional assay
[4] = molecular target: PSI-HydA complex purified from ΨH1^H6 (Chlamydomonas reinhardtii) (UniProt P12154); experiment: immunoblot of isolated PSI particles loaded on equal P700
[5] = substrate: PSI purified from the hydA strain (hydA1-1 hydA2-1) (Chlamydomonas reinhardtii) (UniProt P12154); experiment: cell-based or functional assay
[6] = molecular target: PSI-HydA complex of the ΨH1 strain (hydA1-1 hydA2-1 [psaC-hydA2]) (Chlamydomonas reinhardtii) (UniProt P12154); experiment: cell-based or functional assay; remark: listed apart in the source

rate of H2 production in the dark (GC-TCD, ΨH1 culture) (nmol H2 h^-1 (mg Chl)^-1) [1]: 330
NADP+ photoreduction rate (coupled assay with Fd and FNR) (NADPH s^-1 per PSI) [2]: 0.77
ability of PSI-HydA to reduce algal Fd (in a coupled assay) [2]: 50%
NADP+ photoreduction rate (coupled assay with Fd and FNR) (NADPH s^-1 per PSI) [3]: 1.57
Molecule: ferredoxin (Fd) (from UniProt P07839 33-126)

ratio of anti-PsaD cross-reactive bands (PSI : PSI-HydA) (ratio to WT PSI) [4]: 1.02
B1: PsaD (protein, Chlamydomonas reinhardtii, UniProt Q39615 36-196, looked up)
chain: EAEAAPAAAKKAAEKPAWTVPTLNPDTPSPIFGGSTGGLLRKAQTEEFYVITWEAKKEQIFEMPTGGAAIMRQGPNLLKFGKKEQCLALTTQLRNKFKLTPCFYRVFPDGKVQYLHPADGVYPEKVNAGRVGANQNMRRIGQNVNPIKVKFSGRMMSPAEI

Flavodoxin photoreduction turnover rate [5]: 0.77 s⁻¹
Flavodoxin photoreduction turnover rate [6]: 0.088 s⁻¹
light-driven reduction of cyanobacterial flavodoxin, drop against PSI [6]: 9 fold
B2: Recombinant Synechococcus sp. PCC7002 flavodoxin (protein, UniProt P31158 2-170, looked up)
chain: SKIGLFFGTQTGNTEELAQAIQAAFGGSDIVELFDVAEVDIEALRDFDQLIIGCPTWNVGELQSDWEALYDDLDDVDFSGKTIAYFGAGDQVGYADNFQDAMGVLEEKITSLGGKTVGQWPTAGYDHSESKAERDGKFVGLAIDEDNQPELTAERIQAWVAQLKPAFGL

Reference: patent US20220204996A1
